# Data published in patent US20240279350A1 (Sanofi, published 2024).
# How the values were obtained:
# human CD40 on cells [1] = target: T1, human CD40 on cells (human, UniProt P25942 21-277); assay: cell-based or functional assay
# human CD40 on cells [2] = target: T1, human CD40 on cells; assay: cell-based or functional assay; remark: listed apart in the source
# human CD40 on cells [3] = target: T1, human CD40 on cells; assay: cell-based or functional assay; remark: listed apart in the source
# human CD40 on cells [4] = target: T1, human CD40 on cells; assay: cell-based or functional assay; remark: listed apart in the source
# human CD40 on cells [5] = target: T1, human CD40 on cells; assay: flow cytometry on Raji cells
# Protocol: (§1) Briefly, Raji cells were seeded in 96-well plates at 1.0×10⁵ cells/well and incubated with serially-diluted test antibodies for 60 minutes at 4° C. in 2% FBS/dPBS buffer. The cells were then washed twice with dPBS and further incubated with secondary allophycocyanin (APC)-conjugated AffiniPure F(ab′)₂ fragment donkey anti-human IgG (H+L) antibody (Jackson ImmunoResearch, Ref. 709-136-149) (1:500) for 30 minutes at 4° C. Finally, the cells were washed twice with dPBS and suspended in FACS buffer for flow cytometry analysis. MFI values vs concentrations were analyzed by FlowJo and data were further fitted with four-parameter non-linear regression to get EC₅₀ values by GraphPad Prism software.
# human CD40 on cells [6] = target: T1, human CD40 on cells; assay: flow cytometry on U-2 OS/NFκB cells
# Protocol: as §1, with “cultured U-2 OS/NFκB” for “Raji”
# human CD40 on cells [7] = target: T1, human CD40 on cells; assay: flow cytometry on Raji cells; EC50 relative to mAb1
# Protocol: as §1
# human CD40 on cells [8] = target: T1, human CD40 on cells; assay: flow cytometry on U-2 OS/NFκB cells; EC50 relative to mAb1
# Protocol: as §1, with “cultured U-2 OS/NFκB” for “Raji”
# human CD40 on cells [9] = target: T1, human CD40 on cells; assay: flow cytometry on human primary naive B-cells, 1 h at 4 °C, AF488-conjugated secondary antibody (MFI)
# Protocol: Naive B-cell were plated at a density of […] cells per well in 96-well plates and incubated with CD40 agonists, hexameric ligand and anti-CD40 antibodies, for 1 hour at 4° C.
# T1 sequence (P25942 21-277 limits assumed): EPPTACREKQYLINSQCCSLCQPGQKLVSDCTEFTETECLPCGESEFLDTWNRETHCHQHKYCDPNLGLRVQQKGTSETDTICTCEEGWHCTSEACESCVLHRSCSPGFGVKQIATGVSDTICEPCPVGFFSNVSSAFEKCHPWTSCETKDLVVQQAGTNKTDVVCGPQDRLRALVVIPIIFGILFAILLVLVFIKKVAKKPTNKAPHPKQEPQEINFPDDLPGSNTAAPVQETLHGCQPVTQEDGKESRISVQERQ
Binder,"EC50, luciferase reporter assay in U-2 OS/NFκB cells (human CD40 on cells [1])","Relative masking efficacy, luciferase reporter assay in U-2 OS/NFκB cells (human CD40 on cells [1])","EC50, CD86 expression, primary human B-cell activation assay (human CD40 on cells [2])","Relative masking efficacy, CD86 expression, primary human B-cell activation assay (human CD40 on cells [2])","EC50, CD83 expression, B-cells of hCD40 KI mice (human CD40 on cells [3])","EC50, CD86 expression, B-cells of hCD40 KI mice (human CD40 on cells [3])","Relative masking efficacy, CD83 expression, B-cells of hCD40 KI mice (human CD40 on cells [3])","Relative masking efficacy, CD86 expression, B-cells of hCD40 KI mice (human CD40 on cells [3])","EC50, CD83 expression, MoDC maturation assay (human CD40 on cells [4])","EC50, IL-8 release, MoDC maturation assay (human CD40 on cells [4])",EC50 (human CD40 on cells [5]),EC50 (human CD40 on cells [6]),Relative masking efficacy (human CD40 on cells [7]),Relative masking efficacy (human CD40 on cells [8]),binding result (human CD40 on cells [9])
"MC1 (masked mAb1 comprising MM1 and CL1) (antibody, human IgG2, kappa, Conditionally-active (masked) antibody) heavy: QVQLVQSGAEVKKPGASVKVSCKASGYTFTGKYMHWVRQAPGQGLEWMGWINPDSGGTNYAQKFQGRVTMTRDTSIATAYMELNRLRSDDTAVYYCARDQPLGYCTNGVCSYFDYWGQGTLVTVSSASTKGPSVFPLAPCSRSTSESTAALGCLVKDYFPEPVTVSWNSGALTSGVHTFPAVLQSSGLYSLSSVVTVPSSNFGTQTYTCNVDHKPSNTKVDKTVERKCCVECPPCPAPPVAGPSVFLFPPKPKDTLMISRTPEVTCVVVDVSHEDPEVQFNWYVDGVEVHNAKTKPREEQFNSTFRVVSVLTVVHQDWLNGKEYKCKVSNKGLPAPIEKTISKTKGQPREPQVYTLPPSREEMTKNQVSLTCLVKGFYPSDIAVEWESNGQPENNYKTTPPMLDSDGSFFLYSKLTVDKSRWQQGNVFSCSVMHEALHNHYTQKSLSLSPGK light: EDEPGIRCYYNDDTCQYGGGPLGLAGSGGSDIQMTQSPSSVSASVGDRVTITCRASQGIYSWLAWYQQKPGKAPNLLIYTASTLQSGVPSRFSGSGSGTDFTLTISSLQPEDFATYYCQQANIFPLTFGGGTKVEIKRTVAAPSVFIFPPSDEQLKSGTASVVCLLNNFYPREAKVQWKVDNALQSGNSQESVTEQDSKDSTYSLSSTLTLSKADYEKHKVYACEVTHQGLSSPVTKSFNRGEC",179 nM,753 fold,40.3 nM,231 fold,6.7 nM,3.57 nM,131 fold,115 fold,56.5 nM,19.5 nM,476 nM,330 nM,355 fold,220 fold,–
"MC4 (masked mAb1 comprising MM2 and CL2) (antibody, human IgG2, kappa, Conditionally-active (masked) antibody) heavy: QVQLVQSGAEVKKPGASVKVSCKASGYTFTGKYMHWVRQAPGQGLEWMGWINPDSGGTNYAQKFQGRVTMTRDTSIATAYMELNRLRSDDTAVYYCARDQPLGYCTNGVCSYFDYWGQGTLVTVSSASTKGPSVFPLAPCSRSTSESTAALGCLVKDYFPEPVTVSWNSGALTSGVHTFPAVLQSSGLYSLSSVVTVPSSNFGTQTYTCNVDHKPSNTKVDKTVERKCCVECPPCPAPPVAGPSVFLFPPKPKDTLMISRTPEVTCVVVDVSHEDPEVQFNWYVDGVEVHNAKTKPREEQFNSTFRVVSVLTVVHQDWLNGKEYKCKVSNKGLPAPIEKTISKTKGQPREPQVYTLPPSREEMTKNQVSLTCLVKGFYPSDIAVEWESNGQPENNYKTTPPMLDSDGSFFLYSKLTVDKSRWQQGNVFSCSVMHEALHNHYTQKSLSLSPGK light: EVGSYYVCPVRFQYFCEESGRSAGGGGPLGLAGSGGSDIQMTQSPSSVSASVGDRVTITCRASQGIYSWLAWYQQKPGKAPNLLIYTASTLQSGVPSRFSGSGSGTDFTLTISSLQPEDFATYYCQQANIFPLTFGGGTKVEIKRTVAAPSVFIFPPSDEQLKSGTASVVCLLNNFYPREAKVQWKVDNALQSGNSQESVTEQDSKDSTYSLSSTLTLSKADYEKHKVYACEVTHQGLSSPVTKSFNRGEC",45.8 nM,193 fold,14.7 nM,84 fold,1.24 nM,1.05 nM,24.3 fold,33.8 fold,17.2 nM,12.2 nM,143 nM,176 nM,107 fold,118 fold,–
"MC3 (masked mAb1 comprising MM1 and CL2) (antibody, human IgG2, kappa, Conditionally-active (masked) antibody) heavy: QVQLVQSGAEVKKPGASVKVSCKASGYTFTGKYMHWVRQAPGQGLEWMGWINPDSGGTNYAQKFQGRVTMTRDTSIATAYMELNRLRSDDTAVYYCARDQPLGYCTNGVCSYFDYWGQGTLVTVSSASTKGPSVFPLAPCSRSTSESTAALGCLVKDYFPEPVTVSWNSGALTSGVHTFPAVLQSSGLYSLSSVVTVPSSNFGTQTYTCNVDHKPSNTKVDKTVERKCCVECPPCPAPPVAGPSVFLFPPKPKDTLMISRTPEVTCVVVDVSHEDPEVQFNWYVDGVEVHNAKTKPREEQFNSTFRVVSVLTVVHQDWLNGKEYKCKVSNKGLPAPIEKTISKTKGQPREPQVYTLPPSREEMTKNQVSLTCLVKGFYPSDIAVEWESNGQPENNYKTTPPMLDSDGSFFLYSKLTVDKSRWQQGNVFSCSVMHEALHNHYTQKSLSLSPGK light: EDEPGIRCYYNDDTCQYSGRSAGGGGPLGLAGSGGSDIQMTQSPSSVSASVGDRVTITCRASQGIYSWLAWYQQKPGKAPNLLIYTASTLQSGVPSRFSGSGSGTDFTLTISSLQPEDFATYYCQQANIFPLTFGGGTKVEIKRTVAAPSVFIFPPSDEQLKSGTASVVCLLNNFYPREAKVQWKVDNALQSGNSQESVTEQDSKDSTYSLSSTLTLSKADYEKHKVYACEVTHQGLSSPVTKSFNRGEC",108 nM,457 fold,27.9 nM,158 fold,2.84 nM,2.01 nM,55.7 fold,64.9 fold,27.4 nM,13.3 nM,388 nM,197 nM,289 fold,131 fold,–
"MC2 (masked mAb1 comprising MM2 and CL1) (antibody, human IgG2, kappa, Conditionally-active (masked) antibody) heavy: QVQLVQSGAEVKKPGASVKVSCKASGYTFTGKYMHWVRQAPGQGLEWMGWINPDSGGTNYAQKFQGRVTMTRDTSIATAYMELNRLRSDDTAVYYCARDQPLGYCTNGVCSYFDYWGQGTLVTVSSASTKGPSVFPLAPCSRSTSESTAALGCLVKDYFPEPVTVSWNSGALTSGVHTFPAVLQSSGLYSLSSVVTVPSSNFGTQTYTCNVDHKPSNTKVDKTVERKCCVECPPCPAPPVAGPSVFLFPPKPKDTLMISRTPEVTCVVVDVSHEDPEVQFNWYVDGVEVHNAKTKPREEQFNSTFRVVSVLTVVHQDWLNGKEYKCKVSNKGLPAPIEKTISKTKGQPREPQVYTLPPSREEMTKNQVSLTCLVKGFYPSDIAVEWESNGQPENNYKTTPPMLDSDGSFFLYSKLTVDKSRWQQGNVFSCSVMHEALHNHYTQKSLSLSPGK light: EVGSYYVCPVRFQYFCEEGGGPLGLAGSGGSDIQMTQSPSSVSASVGDRVTITCRASQGIYSWLAWYQQKPGKAPNLLIYTASTLQSGVPSRFSGSGSGTDFTLTISSLQPEDFATYYCQQANIFPLTFGGGTKVEIKRTVAAPSVFIFPPSDEQLKSGTASVVCLLNNFYPREAKVQWKVDNALQSGNSQESVTEQDSKDSTYSLSSTLTLSKADYEKHKVYACEVTHQGLSSPVTKSFNRGEC",113 nM,477 fold,28.5 nM,176 fold,2.31 nM,1.46 nM,45.2 fold,47.2 fold,33.1 nM,15.1 nM,488 nM,317 nM,364 fold,211 fold,–
"mAb4 (Y32R) (antibody, human IgG2, kappa, V domains shown, Mutant of AbC1 with the same constant regions (IgG2)) VH: QVQLVQSGAEVKKPGASVKVSCKASGYTFTGRYMHWVRQAPGQGLEWMGWINPDSGGTNYAQKFQGRVTMTRDTSISTAYMELNRLRSDDTAVYYCARDQPLGYCTNGVCSYFDYWGQGTLVTVSS VL: DIQMTQSPSSVSASVGDRVTITCRASQGIYSWLAWYQQKPGKAPNLLIYTASTLQSGVPSRFSGSGSGTDFTLTISSLQPEDFATYYCQQANIFPLTFGGGTKVEIKR",–,–,–,–,–,–,–,–,–,–,–,–,–,–,binds
